Among the data in article PMC10175819 are percent reduction of the PLATZ1-DELLA interaction with GRF4 as the third protein and fold stronger interaction than between PLATZ and DELLA values, retold here.

Where only a bound is given, the exact number is not on record here.

For assay [1], the target named is RHT1-GRAS (truncated DELLA protein carrying only the C-terminal GRAS domain), yeast hybrid fusion (wheat). As to the kind of experiment: yeast three-hybrid; quantitative alpha-gal Y3H assay; BD and AD fusions with a third protein expressed or not expressed; n = 12.
Assay [2] addresses GROWTH-REGULATING FACTOR 4 (GRF4), yeast hybrid fusion (wheat). Described as above.

As to “GROWTH-REGULATING FACTOR 4 (GRF4), yeast hybrid fusion (natural protein)”, in assay [1], the percent reduction of the PLATZ1-DELLA interaction with GRF4 as the third protein worked out at 74%.
In the case of “RHT1-GRAS (truncated DELLA protein carrying only the C-terminal GRAS domain), yeast hybrid fusion (domain or fragment)”, the fold stronger interaction than between PLATZ and DELLA in assay [2] was > 20 fold.
